Source: patent US20220119513A1 (ZOETIS SERVICES, published 2022)
Read-outs that look alike come from different tables or passages of the source.

What was measured:
TGFβ3 (R&D Systems) [1] = target: T1, TGFβ3 (R&D Systems) (Homo sapiens (Human), UniProt P10600 301-412, Active TGFβ3 is a disulfide-linked homodimer of this chain; one copy is given.); experiment: SPR full titration
T1 construct: also called TGFB3
T1 sequence: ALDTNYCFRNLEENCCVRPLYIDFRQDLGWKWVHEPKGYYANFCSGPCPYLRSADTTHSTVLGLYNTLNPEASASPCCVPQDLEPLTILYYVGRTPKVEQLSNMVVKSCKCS

TGFβ2 (R&D Systems) [2] = target: T2, TGFβ2 (R&D Systems); experiment: SPR full titration
T2 construct: also called TGFB2
T2 sequence (P61812 303-414, species assumed, looked up): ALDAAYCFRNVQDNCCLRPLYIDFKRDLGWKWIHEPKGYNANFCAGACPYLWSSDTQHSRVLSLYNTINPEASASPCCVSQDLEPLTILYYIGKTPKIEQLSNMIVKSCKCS

TGFβ1 (R&D Systems) [3] = target: T3, TGFβ1 (R&D Systems); experiment: SPR full titration
T3 construct: also called TGFB1

TGFβ3 (R&D Systems) [4] = target: T1, TGFβ3 (R&D Systems); experiment: cell-based or functional assay
TGFβ2 (R&D Systems) [5] = target: T2, TGFβ2 (R&D Systems); experiment: cell-based or functional assay
TGFβ1 (R&D Systems) [6] = target: T3, TGFβ1 (R&D Systems); experiment: cell-based or functional assay
TGFβ3 (R&D Systems) [7] = target: T1, TGFβ3 (R&D Systems); experiment: SPR full titration; remark: listed apart in the source
TGFβ1 (R&D Systems) [8] = target: T3, TGFβ1 (R&D Systems); experiment: SPR full titration; remark: listed apart in the source
TGFβ3 (R&D Systems) [9] = target: T1, TGFβ3 (R&D Systems); experiment: cell-based or functional assay; remark: listed apart in the source
TGFβ1 (R&D Systems) [10] = target: T3, TGFβ1 (R&D Systems); experiment: cell-based or functional assay; remark: listed apart in the source
TGFβ3 (R&D Systems) [11] = target: T1, TGFβ3 (R&D Systems); experiment: SPR, TGFβ on chip
Source text: (§1) To avoid affinity differences associated with differential surface preparation that can occur when immobilizing antibodies to surfaces, TGFβ1, TGFβ2, and TGFβ3 (R&D Systems) were directly conjugated to the individual surface. Immobilization was obtained by amine coupling […] using N-hydroxysuccinimide (NHS)/1-Ethyl-3-(3-dimethylaminopropyl) carbodiimide (EDC) chemistry. Chips were quenched with ethanolamine and the affinity with which all candidate mAbs bound to the immobilized TGFβ was evaluated. All curves were fit to a 1:1 model. Affinities <10⁻¹¹ are below the lower limit of quantitation of detection for the instrument.

TGFβ2 (R&D Systems) [12] = target: T2, TGFβ2 (R&D Systems); experiment: SPR, TGFβ on chip
Source text: as §1

TGFβ1 (R&D Systems) [13] = target: T3, TGFβ1 (R&D Systems); experiment: SPR, TGFβ on chip
Source text: as §1

TGFβ3 (R&D Systems) [14] = target: T1, TGFβ3 (R&D Systems); experiment: SPR
TGFβ1 (R&D Systems) [15] = target: T3, TGFβ1 (R&D Systems); experiment: cell-based or functional assay; remark: listed apart in the source
TGFβ3 (R&D Systems) [16] = target: T1, TGFβ3 (R&D Systems); experiment: cell-based or functional assay; remark: listed apart in the source
TGFβ2 (R&D Systems) [17] = target: T2, TGFβ2 (R&D Systems); experiment: cell-based or functional assay; remark: listed apart in the source
TGFβ1 (R&D Systems) [18] = target: T3, TGFβ1 (R&D Systems); experiment: cell-based or functional assay; remark: listed apart in the source
TGFβ1 (R&D Systems) [19] = target: T3, TGFβ1 (R&D Systems); experiment: cell-based or functional assay; remark: listed apart in the source

T3 sequence (P01137 279-390): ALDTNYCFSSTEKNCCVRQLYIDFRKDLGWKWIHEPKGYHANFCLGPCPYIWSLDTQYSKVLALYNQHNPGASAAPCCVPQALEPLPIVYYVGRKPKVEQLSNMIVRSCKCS

B1: mHcLb (antibody, V domains shown)
VH: QVQLEESGPELVRPGASVKLSCKASGYIFITYWMNWVKQRPGQGLEWIGQIFPASGSTNYNEMFEGKATLTVDTSSSTAYMQLSSLTSEDSAVYYCARGDGNYALDAMDYWGQGT
VL: DIVLTQTPASLAVSLGQRATISCRASESVDSYGNSFMHWYQQKSGQPPKLLIYLASNLESGVPARFSGSGSRTDFTLTIDPVEADDAATYYCQQNNEDPLTFGAGTK
notes: murine antibody; also called 1D11; mHcLb (murine)
- Kd (TGFβ3 (R&D Systems) [1]): 0.223 nM
- Kd (TGFβ2 (R&D Systems) [2]): 0.586 nM
- Kd (TGFβ1 (R&D Systems) [3]): 5.05 nM
- pSmad-3, IC50 (TGFβ3 (R&D Systems) [4]): 1.11 nM
- pSmad-3, IC50 (TGFβ2 (R&D Systems) [5]): 11 nM
- pSmad-3, IC50 (TGFβ1 (R&D Systems) [6]): 1.52 nM

B2: chi SL501 (antibody)
heavy: EVQLVESGGGVVQPGRSLRLSCAASGFTFSSYGMHWVRQAPGKELEWVAVISYDGSIKYYADSVKGRFTISRDNSKNTLYLQMNSLRAEDTAVYYCARTGEYSGYDTDPQYSWGQGTTVTVSSASTTAPSVFPLAPSCGSTSGSTVALACLVSGYFPEPVTVSWNSGSLTSGVHTFPSVLQSSGLYSLSSMVTVPSSRWPSETFTCNVAHPASKTKVDKPVPKRENGRVPRPPDCPKCPAPEAAGAPSVFIFPPKPKDTLLIARTPEVTCVVVDLDPEDPEVQISWFVDGKQMQTAKTQPREEQFNGTYRVVSVLPIGHQDWLKGKQFTCKVNNKALPSPIERTISKARGQAHQPSVYVLPPSREELSKNTVSLTCLIKDFFPPDIDVEWQSNGQQEPESKYRTTPPQLDEDGSYFLYSKLSVDKSRWQRGDTFICAVMHEALHNHYTQESLSHSPGK
light: EIVLTQSPSSLSASVGDRVTITCRASQGIGDDLGWYQQKPGKAPILLIYGTSTLQSGVPSRFSGSGSGTDFTLTINSLQPEDFATYYCLQDSNYPLTFGGGTKRNDAQPAVYLFQPSPDQLHTGSASVVCLLNSFYPKDINVKWKVDGVIQDTGIQESVTEQDKDSTYSLSSTLTMSSTEYLSHELYSCEITHKSLPSTLIKSFQRSEC
notes: also called Chimera-SL501-VH/Chimera-SL501-VL
- binding result (TGFβ3 (R&D Systems) [7]): no binding
- Kd (TGFβ1 (R&D Systems) [8]): 0.472 nM

B3: chi04H09 (mouse-dog) (antibody, V domains shown)
VH: QVQLQQSGAELVKPGASVKISCKASGYAFSSSWMNWVKQRPGKGLEWIGQIYPGDGDTNYNGKFKGKATLTADKSSSTAYMQLSSLTSEDSAVYFCARHYDGSTDYWGQGTTLTVSS
VL: DIQMTQSPASLSVSVGETVTITCRASENIYSNLAWYQQKQGKSPQLLVYAATNLADGVPSRFSGSGSGTQYSLKINSLQSEDFGSYYCQHFWGTPYTFGGGTKLEIKR
notes: also called mouse:canine 04H09 chimera
- CMVIC pSmad-3, IC50 (TGFβ3 (R&D Systems) [9]): 66.5 nM
- CMVIC pSmad-3, IC50 (TGFβ1 (R&D Systems) [10]): 3.5 nM
- Kd (TGFβ3 (R&D Systems) [11]): 4.64 nM
- Kd (TGFβ2 (R&D Systems) [12]): 27.7 nM
- Kd (TGFβ1 (R&D Systems) [13]): 4.01 nM

B4: fel-TGFβ1-Spec (antibody)
heavy: DVQLVESGGDLVKPGGSLRLTCVASGFTFSSYGMHWVRQAPGKELEWVAVISYDGSIKYYADAVKGRFTISRDNAKNTLYLQMNSLKTEDTATYYCARTGEYSGYDTDPQYSWGQGTTVTVSSASTTAPSVFPLAPSCGTTSGATVALACLVLGYFPEPVTVSWNSGALTSGVHTFPAVLQASGLYSLSSMVTVPSSRWLSDTFTCNVAHPPSNTKVDKTVRKTDHPPGPKPCDCPKCPPPEAAGAPSIFIFPPKPKDTLSISRTPEVTCLVVDLGPDDSDVQITWFVDNTQVYTAKTSPREEQFNSTYRVVSVLPILHQDWLKGKEFKCKVNSKSLPSPIERTISKAKGQPHEPQVYVLPPAQEELSRNKVSVTCLIKSFHPPDIAVEWEITGQPEPENNYRTTPPQLDSDGTYFVYSKLSVDRSHWQRGNTYTCSVSHEALHSHHTQKSLTQSPGK
light: EIQMTQSPSSLSASPGDRVTITCRASQGIGDDLGWYQQKPGKVPKLLIYGTSTLQSGVPSRFSGSGSGTDFTLTISSLEPEDAATYYCLQDSNYPLTFGGGTKRSDAQPSVFLFQPSLDELHTGSASIVCILNDFYPKEVNVKWKVDGVVQNKGIQESTTEQNSKDSTYSLSSTLTMSSTEYQSHEKFSCEVTHKSLASTLVKSFQRSECQRE
notes: also called FelSL501-VH3-9/FelSL501-VL1-1
- binding result (TGFβ3 (R&D Systems) [14]): no binding
- CMVIC pSmad-3, IC50 (TGFβ1 (R&D Systems) [15]): 9.03 nM

B5: fel-TGFβ1_hetero-chimera-1 (antibody)
heavy: DVQLVESGGDLVKPGGSLRLTCVASGFTFSSYGMHWVRQAPGKELEWVAVISYDGSIKYYADAVKGRFTISRDNAKNTLYLQMNSLKTEDTATYYCARTGEYSGYDTDPQYSWGQGTTVTVSSASTTAPSVFPLAPSCGTTSGATVALACLVLGYFPEPVTVSWNSGALTSGVHTFPAVLQASGLYSLSSMVTVPSSRWLSDTFTCNVAHPPSNTKVDKTVRKTDHPPGPKPCDCPKCPPPEAAGAPSIFIFPPKPKDTLSISRTPEVTCLVVDLGPDDSDVQITWFVDNTQVYTAKTSPREEQFNSTYRVVSVLPILHQDWLKGKEFKCKVNSKSLPSPIERTISKAKGQPHEPQVYVLPPAQEELSRNKVSVTCLIKSFHPPDIAVEWEITGQPEPENNYRTTPPQLDSDGTYFVYSKLSVDRSHWQRGNTYTCSVSHEALHSHHTQKSLTQSPGK
light: EIVLTQSPSSLSASVGDRVTITCRASQGIGDDLGWYQQKPGKAPILLIYGTSTLQSGVPSRFSGSGSGTDFTLTINSLQPEDFATYYCLQDSNYPLTFGGGTKRSDAQPSVFLFQPSLDELHTGSASIVCILNDFYPKEVNVKWKVDGVVQNKGIQESTTEQNSKDSTYSLSSTLTMSSTEYQSHEKFSCEVTHKSLASTLVKSFQRSECQRE
- binding result (TGFβ3 (R&D Systems) [14]): no binding
- CMVIC pSmad-3, IC50 (TGFβ1 (R&D Systems) [15]): 30.1 nM

B6: fel-TGFβ1_hetero-chimera-2 (antibody)
heavy: EVQLVESGGGVVQPGRSLRLSCAASGFTFSSYGMHWVRQAPGKELEWVAVISYDGSIKYYADSVKGRFTISRDNSKNTLYLQMNSLRAEDTAVYYCARTGEYSGYDTDPQYSWGQGTTVTVSSASTTAPSVFPLAPSCGTTSGATVALACLVLGYFPEPVTVSWNSGALTSGVHTFPAVLQASGLYSLSSMVTVPSSRWLSDTFTCNVAHPPSNTKVDKTVRKTDHPPGPKPCDCPKCPPPEAAGAPSIFIFPPKPKDTLSISRTPEVTCLVVDLGPDDSDVQITWFVDNTQVYTAKTSPREEQFNSTYRVVSVLPILHQDWLKGKEFKCKVNSKSLPSPIERTISKAKGQPHEPQVYVLPPAQEELSRNKVSVTCLIKSFHPPDIAVEWEITGQPEPENNYRTTPPQLDSDGTYFVYSKLSVDRSHWQRGNTYTCSVSHEALHSHHTQKSLTQSPGK
light: EIQMTQSPSSLSASPGDRVTITCRASQGIGDDLGWYQQKPGKVPKLLIYGTSTLQSGVPSRFSGSGSGTDFTLTISSLEPEDAATYYCLQDSNYPLTFGGGTKRSDAQPSVFLFQPSLDELHTGSASIVCILNDFYPKEVNVKWKVDGVVQNKGIQESTTEQNSKDSTYSLSSTLTMSSTEYQSHEKFSCEVTHKSLASTLVKSFQRSECQRE
- binding result (TGFβ3 (R&D Systems) [14]): no binding
- CMVIC pSmad-3, IC50 (TGFβ1 (R&D Systems) [15]): 11.9 nM

B7: felHclb 1-1WMN (antibody, V domains shown)
VH: QVLLVQSGAEVRTPGASVKIFCKASGYIFITYWMNWVRQSPAQGLEWMGSIFPASGSTSYAQKFQGRLTLTADTSTNTAYMELSSLRSADTAMYYCARGDGNYALDAMDYWGQGTSVTVSS
VL: EIQMTQSPSSLSASPGDRVTITCRASESVDSYGNSFMHWYQQKPGKVPKLLIYLASNLESGVPSRFSGSGSGTDFTLTISSLEPEDAATYYCQQNNEDPLTFGAGT
- CMVIC pSmad-3, IC50 (TGFβ3 (R&D Systems) [16]): 10.1 nM
- CMVIC pSmad-3, IC50 (TGFβ2 (R&D Systems) [17]): 121 nM
- CMVIC pSmad-3, IC50 (TGFβ1 (R&D Systems) [18]): 69.7 nM

B8: felHclb 1-1xWMN (antibody, V domains shown)
VH: QVLLVQSGAEVRTPGASVKIFCKASGYIFITYWMNWVRQSPAQGLEWMGQIFPASGSTNYNEMFEGRLTLTADTSTNTAYMELSSLRSADTAMYYCARGDGNYALDAMDYWGQGTSVTVSS
VL: EIQMTQSPSSLSASPGDRVTITCRASESVDSYGNSFMHWYQQKPGKVPKLLIYLASNLESGVPSRFSGSGSGTDFTLTISSLEPEDAATYYCQQNNEDPLTFGAGT
- CMVIC pSmad-3, IC50 (TGFβ3 (R&D Systems) [16]): 0.53 nM
- CMVIC pSmad-3, IC50 (TGFβ2 (R&D Systems) [17]): 1.99 nM
- CMVIC pSmad-3, IC50 (TGFβ1 (R&D Systems) [18]): 0.35 nM

B9: Can-SL501_VH3/Can-SL501-VL1 (antibody, V domains shown)
VH: EVQLVESGGDLVKPGGSLRLSCVASGFTFSSYGMHWVRQAPGKGLQWVAVISYDGSIKYYADAVKGRFTISRDNAKNTLYLQMNSLRAEDTAVYYCARTGEYSGYDTDPQYSWGQGTTVTVSS
VL: EIVMTQSPASLSLSQEEKVTITCRASQGIGDDLGWYQQKPGQAPKLLIYGTSTLQSGVPSRFSGSGSGTDFSFTISSLEPEDVAVYYCLQDSNYPLTFGAGTK
notes: caninized IgG; constant regions not restated; also called ZTS-501
- binding result (TGFβ3 (R&D Systems) [7]): no binding
- Kd (TGFβ1 (R&D Systems) [8]): 0.0218 nM
- CMVIC pSmad-3, IC50 (TGFβ1 (R&D Systems) [19]): 4.91 nM
